Reference: patent publication US20250059285A1

Biological target: human Gal10-His (human) (UniProt Q05315)
Experiment: competition ELISA on coated Gal10-His; negative control, competitor g7B07-hFab-Biot; set as 0%

Sequence of human Gal10-His (human) (Q05315 2-142 limits assumed): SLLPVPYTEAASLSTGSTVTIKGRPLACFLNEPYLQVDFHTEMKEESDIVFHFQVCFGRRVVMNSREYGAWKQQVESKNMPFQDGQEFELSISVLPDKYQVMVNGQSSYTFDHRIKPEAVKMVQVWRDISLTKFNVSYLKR

% Competition against g7B07-Biot: 0% | Mean OD value: 2.51 OD
Substance: Motavizumab in a human Fab backbone
